B1: WT bRNA (177 nt) (structured_RNA)
RNA: AGUGCAGAGAAAAUCGGCCAGUUUUCUCUGCCUGCAGUCCGCAUGCCGUAUCGGGCCUUGGGUUCUAACCUGUUGCGUAGAUUUAUGCAGCGGACUGCCUUUCUCCCAAAGUGAUAAACCGGACAGUAUCAUGGACCGGUUUUCCCGGUAAUCCGUAUUUGCAAGGUUGGUUUCACU
B2: WT bRNA + 38-bp tDNA 6mm + 44-bp dDNA 6mm (mixed)
RNA: GGGAGUGCAGAGAAAAUCGGCCAGUUUUCUCUGCCUGCAGUCCGCAUGCCGUAUCGGGCCUUGGGUUCUAACCUGUUGCGUAGAUUUAUGCAGCGGACUGCCUUUCUCCCAAAGUGAUAAACCGGACAGUAUCAUGGACCGGUUUUCCCGGUAAUCCGUAUUUGCAAGGUUGGUUUCACU
DNA 1: GCCGGGTAATACCACCAAGTCTTCTACAGATGAGCTCG
DNA 2: CGAGCTCATCTGTAGGCCTGATGGTGGTATTACCCGGC
DNA 3: TGCAGGCCATAAGTCATACTTGTATTATCCCTCCAGTGCAGAGA
DNA 4: TCTCTGCACTGGAGGGATAATACAAGATACTGTTATGGCCTGCA

Experiments:
[1] = molecular target: T1, IS621 recombinase (Escherichia coli, UniProt A0A0E0Y1P1 1-326); test: MST; 5 mM Mg2+; MST: 20 nM labelled IS621, RNA 0.076-250 nM, 37 C; labelled protein eluted in 20 mM Tris-HCl pH 7.5, 500 mM NaCl, 5 mM MgCl2, 1 mM DTT, 0.01% Tween 20; conditions: protein: recombinant; tags: N-terminal His8, Twin-Strep, HRV 3C site (tag removal not described); chain copies: 4; 5' stem loop, TBL and DBL
[2] = molecular target: T1, IS621 recombinase; test: cryo-EM; initial synaptic complex; MST: 20 nM labelled IS621, RNA 0.076-250 nM, 37 C; labelled protein eluted in 20 mM Tris-HCl pH 7.5, 500 mM NaCl, 5 mM MgCl2, 1 mM DTT, 0.01% Tween 20; conditions: protein: recombinant; tags: N-terminal His8, Twin-Strep, HRV 3C site (tag removal not described); chain copies: 4; S6:S5 and S14:S13 duplexes with 6-nt mismatches at positions 2-7; TBL and DBL from two bRNA copies

Row | Binder | Kd [1] | binding result [2]
1 | B1 | 3 ± 1 nM | –
2 | B2 | – | binds
